Measured values from paper PMC6379665 (Nucleic Acids Research, 2018).

T1: bacteriophage λ terminase large subunit TerL^λ-E179Q (bacteriophage λ, UniProt P03708 1-641, E179Q)
T1 sequence (looked up): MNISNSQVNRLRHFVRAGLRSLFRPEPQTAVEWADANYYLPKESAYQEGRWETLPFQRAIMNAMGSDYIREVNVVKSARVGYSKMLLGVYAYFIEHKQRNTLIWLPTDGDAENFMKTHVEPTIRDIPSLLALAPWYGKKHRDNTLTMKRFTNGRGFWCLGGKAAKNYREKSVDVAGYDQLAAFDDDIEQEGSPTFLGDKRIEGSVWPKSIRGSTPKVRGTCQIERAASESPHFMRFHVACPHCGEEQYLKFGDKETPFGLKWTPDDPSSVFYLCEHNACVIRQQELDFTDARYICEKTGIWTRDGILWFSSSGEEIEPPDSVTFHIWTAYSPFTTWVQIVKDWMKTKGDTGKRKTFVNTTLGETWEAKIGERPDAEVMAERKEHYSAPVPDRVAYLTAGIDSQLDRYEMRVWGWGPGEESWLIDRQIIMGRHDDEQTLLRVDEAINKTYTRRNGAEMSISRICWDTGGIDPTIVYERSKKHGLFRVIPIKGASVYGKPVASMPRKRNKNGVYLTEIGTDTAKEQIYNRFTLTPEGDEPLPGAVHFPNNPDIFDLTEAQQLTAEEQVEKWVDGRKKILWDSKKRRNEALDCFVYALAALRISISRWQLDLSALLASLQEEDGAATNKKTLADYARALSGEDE

T2: bacteriophage λ terminase large subunit TerL^λ-E179A (bacteriophage λ, UniProt P03708 1-641, E179A)
T2 sequence (looked up): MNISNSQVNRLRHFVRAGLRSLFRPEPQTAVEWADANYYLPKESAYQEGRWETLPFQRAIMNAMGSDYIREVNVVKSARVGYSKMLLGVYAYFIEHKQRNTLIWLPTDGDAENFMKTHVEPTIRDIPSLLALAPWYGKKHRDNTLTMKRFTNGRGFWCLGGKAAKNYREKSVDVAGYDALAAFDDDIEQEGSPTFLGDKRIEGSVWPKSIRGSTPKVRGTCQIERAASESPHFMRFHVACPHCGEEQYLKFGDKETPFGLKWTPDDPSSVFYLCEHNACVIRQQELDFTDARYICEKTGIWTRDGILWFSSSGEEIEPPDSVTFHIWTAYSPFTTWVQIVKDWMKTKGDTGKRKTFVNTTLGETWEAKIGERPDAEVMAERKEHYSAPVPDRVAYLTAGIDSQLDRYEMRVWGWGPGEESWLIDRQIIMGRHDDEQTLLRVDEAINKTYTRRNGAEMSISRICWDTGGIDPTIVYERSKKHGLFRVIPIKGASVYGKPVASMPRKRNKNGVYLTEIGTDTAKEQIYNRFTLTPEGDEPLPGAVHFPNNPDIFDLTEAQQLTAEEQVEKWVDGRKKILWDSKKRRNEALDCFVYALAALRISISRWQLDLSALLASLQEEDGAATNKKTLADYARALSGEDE

T3: bacteriophage λ terminase large subunit TerL^λ, wild type (bacteriophage λ, UniProt P03708 1-641)
T3 sequence (looked up): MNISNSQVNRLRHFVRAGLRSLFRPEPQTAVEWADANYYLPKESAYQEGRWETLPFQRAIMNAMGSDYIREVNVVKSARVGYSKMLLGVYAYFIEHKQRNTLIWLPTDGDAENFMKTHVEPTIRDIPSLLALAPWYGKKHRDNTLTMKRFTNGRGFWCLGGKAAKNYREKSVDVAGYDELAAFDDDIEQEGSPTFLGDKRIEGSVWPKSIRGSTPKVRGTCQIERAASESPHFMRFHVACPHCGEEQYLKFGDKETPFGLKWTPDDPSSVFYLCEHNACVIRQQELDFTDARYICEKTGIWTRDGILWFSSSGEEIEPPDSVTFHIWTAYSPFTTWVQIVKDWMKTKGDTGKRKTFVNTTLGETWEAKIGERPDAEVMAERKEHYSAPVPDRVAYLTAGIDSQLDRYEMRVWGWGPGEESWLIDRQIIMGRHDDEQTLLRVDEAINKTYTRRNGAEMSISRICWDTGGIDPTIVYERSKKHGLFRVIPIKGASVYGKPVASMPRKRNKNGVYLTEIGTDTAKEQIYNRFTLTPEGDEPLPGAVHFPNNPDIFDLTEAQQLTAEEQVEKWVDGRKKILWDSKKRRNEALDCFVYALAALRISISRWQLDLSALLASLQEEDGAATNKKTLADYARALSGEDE

B1: bacteriophage λ terminase small subunit TerS (natural protein, UniProt P03707 1-181, looked up)
chain: MEVNKKQLADIFGASIRTIQNWQEQGMPVLRGGGKGNEVLYDSAAVIKWYAERDAEIENEKLRREVEELRQASEADLQPGTIEYERHRLTRAQADAQELKNARDSAEVVETAFCTFVLSRIAGEIASILDGLPLSVQRRFPELENRHVDFLKRDIIKAMNKAAALDELIPGLLSEYIEQSG

Key:
Test in all cases: AUC
[1] = molecular target: bacteriophage λ terminase protomer (TerL•TerS2), wild type (bacteriophage λ) (UniProt P03708)
[2] = molecular target: T1, bacteriophage λ terminase large subunit …
[3] = molecular target: T2, bacteriophage λ terminase large subunit …
[4] = molecular target: T3, bacteriophage λ terminase large subunit …

Molecule	stoichiometry N [1]	binding result [2]	binding result [3]	binding result [4]
bacteriophage λ terminase protomer (TerL•TerS2), wild type (from UniProt P03708 1-641; P03707 1-181) (complex)	4	–	–	–
B1	–	binds	binds	binds
